Data reported in patent US20110129476A1 (MAX PLANCK GESELLSCHAFT ZUR FORDERUNG DER WISSENSCHAFTEN E V, published 2011).

Legend:
[1] = target: RACK1 (receptor for activated C kinase 1), endogenous protein of murine K46 B cells (mouse, UniProt P68040 1-317); assay: reciprocal co-immunoprecipitation (α-RACK1; α-MZB1 5C11 Sepharose) from membrane and cytosolic fractions of K46 B cells, immunoblot
[2] = target: T1, ERp57, endogenous protein of murine K46 B cells (mouse, UniProt P27773 25-505); assay: formaldehyde crosslinking, α-MZB1 immunoprecipitation and mass spectrometry; co-immunoprecipitation of endogenous proteins from K46 extracts
T1 sequence (looked up): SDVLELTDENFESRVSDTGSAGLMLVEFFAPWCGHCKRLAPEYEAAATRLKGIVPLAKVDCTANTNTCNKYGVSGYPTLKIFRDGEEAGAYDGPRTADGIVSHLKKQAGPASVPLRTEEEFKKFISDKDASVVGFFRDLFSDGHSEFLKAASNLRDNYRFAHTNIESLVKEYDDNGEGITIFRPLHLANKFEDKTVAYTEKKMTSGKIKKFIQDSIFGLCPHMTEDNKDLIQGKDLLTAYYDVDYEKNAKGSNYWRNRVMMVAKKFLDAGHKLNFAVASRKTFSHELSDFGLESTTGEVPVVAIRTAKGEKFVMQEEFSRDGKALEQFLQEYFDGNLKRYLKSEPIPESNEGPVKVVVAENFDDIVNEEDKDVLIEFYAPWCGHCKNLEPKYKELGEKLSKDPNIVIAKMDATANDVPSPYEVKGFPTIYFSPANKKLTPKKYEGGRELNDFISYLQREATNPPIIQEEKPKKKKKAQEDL
Description: (§1) Approximately […] of K46 mature B cells were cultured until reaching the exponential growth phase, harvested and in vivo formaldehyde crosslinking was performed by adding 1% formaldehyde (final concentration) directly to the K46 cell culture. Cells were incubated for 10 min at 37° C. and 5% CO₂ and the crosslinking reaction was quenched by addition of 2.5M glycine with a final concentration of 125 mM. After crosslinking, cells were collected, washed with ice-cold PBS and frozen at −80° C. prior to lysis. […] The immunoprecipitated proteins were eluted with sample buffer and separated on a 4%-12% gradient SDS-PAGE. The gel was silver stained. The marked bands (arrow) were cut out and prepared for mass spectrometry analysis.

[3] = target: GRP94 (Endoplasmin), endogenous protein of murine K46 B cells (mouse, UniProt P08113 22-802); assay: as above
Description: as §1

[4] = target: T2, ERp44, endogenous protein of murine K46 B cells (mouse, UniProt Q9D1Q6 30-406); assay: as above
T2 sequence (looked up): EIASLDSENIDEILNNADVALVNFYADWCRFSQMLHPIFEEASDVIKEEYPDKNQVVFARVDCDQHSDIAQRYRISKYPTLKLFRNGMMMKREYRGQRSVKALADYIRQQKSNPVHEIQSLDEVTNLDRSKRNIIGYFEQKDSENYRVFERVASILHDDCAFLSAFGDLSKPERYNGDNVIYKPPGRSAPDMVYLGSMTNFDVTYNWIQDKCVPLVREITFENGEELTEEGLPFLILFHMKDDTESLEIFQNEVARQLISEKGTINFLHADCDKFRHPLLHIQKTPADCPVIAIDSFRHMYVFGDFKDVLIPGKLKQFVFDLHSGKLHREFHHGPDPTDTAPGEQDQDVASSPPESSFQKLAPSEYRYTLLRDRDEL
Description: as §1

Measured: binding result

GRP94 (Endoplasmin), endogenous protein of murine K46 B cells, sequence (P08113 22-802 limits assumed): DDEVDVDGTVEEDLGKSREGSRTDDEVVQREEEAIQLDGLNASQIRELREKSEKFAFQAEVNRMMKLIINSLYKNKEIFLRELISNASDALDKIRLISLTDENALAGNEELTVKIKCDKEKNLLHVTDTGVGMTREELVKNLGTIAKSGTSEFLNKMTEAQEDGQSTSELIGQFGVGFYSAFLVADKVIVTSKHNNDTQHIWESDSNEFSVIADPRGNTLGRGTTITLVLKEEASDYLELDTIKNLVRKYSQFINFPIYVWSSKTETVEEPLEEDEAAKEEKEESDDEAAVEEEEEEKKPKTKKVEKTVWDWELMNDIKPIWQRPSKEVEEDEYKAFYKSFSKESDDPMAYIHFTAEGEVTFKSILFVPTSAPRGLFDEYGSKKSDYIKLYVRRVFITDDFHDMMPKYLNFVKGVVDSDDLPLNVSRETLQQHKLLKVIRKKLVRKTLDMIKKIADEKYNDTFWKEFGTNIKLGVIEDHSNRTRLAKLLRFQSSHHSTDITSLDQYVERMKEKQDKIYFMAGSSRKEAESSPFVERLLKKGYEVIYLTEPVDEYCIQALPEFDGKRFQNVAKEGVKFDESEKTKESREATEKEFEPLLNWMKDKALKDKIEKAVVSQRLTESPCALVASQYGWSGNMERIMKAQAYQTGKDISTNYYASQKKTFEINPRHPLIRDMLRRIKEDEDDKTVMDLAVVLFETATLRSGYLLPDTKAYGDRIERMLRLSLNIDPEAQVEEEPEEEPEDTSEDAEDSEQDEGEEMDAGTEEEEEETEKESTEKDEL

B1: MZB1 (marginal zone B1 B cell factor 1), endogenous protein of murine K46 mature B cells (other)
chain: GDRVSLSASAPTLDDEEKYSAHMPAHLRCDACRAVAFQMGQRLAKAEAKSHTPDASGLQELSESTYTDVLDQTCSQNWQSYGVHEVNQMKRLTGPGLSKGPEPRISVMISGGPWPNRLSKTCFHYLGEFGEDQIYEAYRQGQANLEALLCGGTHGPCSQEILAQREEL
notes: Endogenous protein in K46 cell extracts (whole cell, membrane or cytosolic fraction); also called AL1
binds: all assays above
